# From the supplement of paper PMC12764529
# ± gives the half width of the 95% confidence interval.
# Tests used:
# [1] = folding stability dG unfold (combined trypsin and chymotrypsin); higher = more stable
# Procedure, shortened: (§1)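 Digests were run with trypsin and chymotrypsin at 11 concentrations in threefold dilutions, plus a no-protease condition, on designed mini-proteins in a PA-tagged cDNA display construct. The mini-proteins were under 80 residues, had no cysteine, and were kept only when AlphaFold2 dimer inter-PAE was above 15. After sequencing, Bayesian fitting of the counts gave K50, from which unfolding free energy was derived against a sequence-predicted unfolded-state K50 and a shared folded-state K50, per protease or combined.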
# [2] = folding stability dG unfold from chymotrypsin proteolysis; higher = more stable
# Procedure, shortened: as §1
# [3] = folding stability dG unfold from trypsin proteolysis; higher = more stable
# Procedure, shortened: as §1
Sequence,folding stability dG unfold [1] [kcal/mol],folding stability dG unfold [2] [kcal/mol],folding stability dG unfold [3] [kcal/mol]
SAGGSAGGSAEKGIAFILLVTEEGDLEKALETAEELKKELEEKTGKPVEVVVNIFVVEPELFSAGGSAGGSA [r18_515_TrMRF],2.24 ± 0.14,2.38 ± 0.084,1.81 ± 0.048
SAGGSAGGSAEKVITVWIPLPPGQGVDEIAKEIARYLGFPNIKIDNIQYDPEDGWYQITFKLSAGGSAGGSA [r18_481_TrROS],3.97 ± 0.061,4.163 ± 0.032,3.48 ± 0.096
SAGGSAGGSAEPDIEVVVTPVPGPYGPLYYRVEVRIPEAGRTVFTYARLDDPEEIEGIPIESAGGSAGGSAG [r3_432_TrMRF],0.7 ± 0.077,0.545 ± 0.16,0.829 ± 0.066
SAGGSAGGSAEPPEVRIRLEVRLLPDGTLEVTAEIEVDGKTYRITVTVDAKTNEIVSVSIEPSAGGSAGGSA [r18_459_TrROS_Hall],4.3 ± 0.46,3.89 ± 0.21,4.44 ± 0.36
SAGGSAGGSAEPPPLVVVTEVRTITVEIDLDDLSEEEREALENLDTVTITVTRVVVVPREDLSAGGSAGGSA [r18_127_TrROS_Hall],1.84 ± 0.46,1.39 ± 0.22,2.42 ± 0.22
SAGGSAGGSAETVTITLTVPPGASVEEILAALKAKYPDITSVSVERREDGYLKVTVTVRLDSAGGSAGGSAG [r3_371_TrROS_Hall],4.46 ± 0.074,4.02 ± 0.068,5.28 ± 0.47
SAGGSAGGSAEWKPITYWVPPGQSIKEIADDLMDKNPRITDAEMEYDPDGYMKVTLTVRLDSAGGSAGGSAG [r3_371_TrROS],0.552 ± 0.086,0.505 ± 0.14,0.493 ± 0.056
SAGGSAGGSAEYRVVVVPPVPTVLIFVKPDRVYVVDLDPATGRATIRPVNVPPNVLPESLLTSAGGSAGGSA [r18_59_TrMRF],1.52 ± 0.056,1.67 ± 0.06,1.27 ± 0.02
SAGGSAGGSAFKLPPGKKITIFFDPENGNFAIMVPDGNERRVPMPAEELIKLGFPVEIIGPWSAGGSAGGSA [r18_125_TrROS],0.517 ± 0.19,0.566 ± 0.25,0.365 ± 0.14
SAGGSAGGSAFQIEDLKIEKVEFNPDGMVHNELEITLPGGKELEVSIMIDPKKPGKLMIMIVSAGGSAGGSA [r18_97_TrROS],1.66 ± 0.31,1.42 ± 0.049,1.98 ± 0.11
SAGGSAGGSAGAKKLPPGQVALRIEPVTVTVTDEDGKERTVTRIRLVDAATGEEYEFTFPSAGGSAGGSAGG [r17_266_TrROS_Hall],0.744 ± 0.15,0.531 ± 0.1,0.829 ± 0.1
SAGGSAGGSAGAPPDVEEVTVTVTITNPDGSTTTTTVTATPEELAALAAAPGRPTAVSAESAGGSAGGSAGG [r17_313_JUSTAS],0.595 ± 0.17,0.486 ± 0.015,0.635 ± 0.072
SAGGSAGGSAGASPSVPFTVKVTIKSPNGLSTKTISLSSLEDLEALPLPNVVEIEITPLSSAGGSAGGSAGG [r17_290_JUSTAS],0.907 ± 0.14,0.78 ± 0.14,1.04 ± 0.049
SAGGSAGGSAGDAEEIADEIRENMYGPDGKYVPKEVEIKEIEPPPGQLKVEIEMPPGMPISAGGSAGGSAGG [r17_519_TrROS],1.32 ± 0.16,0.954 ± 0.077,1.81 ± 0.13
SAGGSAGGSAGDDGSDLPVVDLKVSISPFVRPLPNGEEVTVWKVLVENPGSSSRSEFYFGSAGGSAGGSAGG [r17_59_TrMRF],0.283 ± 0.15,0.118 ± 0.19,0.337 ± 0.12
SAGGSAGGSAGDDNKKKPKPKIEIQPVRMTMPFPENGLRIEIDIWVIKDGNIIFMIEWYPSAGGSAGGSAGG [r11_463_TrROS],3.3 ± 0.11,3.72 ± 0.17,2.92 ± 0.12
SAGGSAGGSAGDEKYTLTVTIPVPKNAPVLVGAEKGYEVIDLNPDAPVEEGYITVKVEFGSAGGSAGGSAGG [r11_701_TrMRF],-0.391 ± 0.15,-0.833 ± 0.14,-0.376 ± 0.086
SAGGSAGGSAGDEPNDVVKIDFTFFFEDGYMIEMDIVIVPNGNIAIEIEIEPIKPPDEGDSAGGSAGGSAGG [r11_998_TrROS],2.09 ± 0.31,1.9 ± 0.13,2.06 ± 0.39
SAGGSAGGSAGDFELDFEWHRTNDHVVLSNKARDPDNGKPLYISIIFDPDPGKLDISIMPSAGGSAGGSAGG [r17_242_TrROS],0.0261 ± 0.083,-0.858 ± 0.59,0.396 ± 0.036
SAGGSAGGSAGDGINFTLDIPIEGDFELRDVYLTPLEPENRRAFFLLRYKDGPVLLTLPLSAGGSAGGSAGG [r11_1013_TrMRF],1.09 ± 0.1,0.922 ± 0.18,1.21 ± 0.12
SAGGSAGGSAGDIPAIPKVIFIPYPIEKIEVFEDSVVVRVIHPDGGSETIVFPDRALILGSAGGSAGGSAGG [r11_957_TrMRF],1.53 ± 0.11,1.47 ± 0.03,1.6 ± 0.042

Sequence,folding stability dG unfold [1] [kcal/mol],folding stability dG unfold [2] [kcal/mol],folding stability dG unfold [3] [kcal/mol]
SAGGSAGGSAGDKNGKPPPKIEIVPIRMSFRFPELGWWIEIDIYVIKDPAIMISISLYPYSAGGSAGGSAGG [r11_883_TrROS],4.91 ± 0.35,5.25 ± 0.17,3.61 ± 0.22
SAGGSAGGSAGDNFKIKIESFNIMRLPDGYVMISIKIEITVGDKPVEITIMIIIPPGAPISAGGSAGGSAGG [r17_352_TrROS],5.68 ± 0.41,5.74 ± 0.18,4.03 ± 0.15
SAGGSAGGSAGDPKKKPPKPILGFELAEFEITTEDGTKYKVKALIIYFPDTGTKVIFVLGSAGGSAGGSAGG [r11_1024_TrMRF],4.33 ± 0.18,4.73 ± 0.13,2.78 ± 0.13
SAGGSAGGSAGDTSVEYEVSVTVEVFPLPDYALVKVTLEVDYPDGSKEKVEYVFLVSPYEGSAGGSAGGSAG [r3_330_TrMRF],3.04 ± 0.1,3.35 ± 0.082,2.56 ± 0.19
SAGGSAGGSAGDVPPSETVTITVSSEAEKEAIKKEHPEVNLTFTEAEPPVAFDPTSDVTASAGGSAGGSAGG [r17_126_JUSTAS],1.21 ± 0.17,1.27 ± 0.15,0.842 ± 0.096
SAGGSAGGSAGEEEELPLVIRVRFKGPEEVEIEIEAESLEDALAAIESLPDIEEIEILPRSAGGSAGGSAGG [r11_587_TrROS_Hall],1.61 ± 0.055,1.982 ± 0.0079,0.632 ± 0.034
SAGGSAGGSAGEEFIKKIPPGAEVKPITPLESEGKVYVKITVKKKDENGKWTEEEFIFKVSAGGSAGGSAGG [r17_140_JUSTAS],1.28 ± 0.22,1.38 ± 0.087,1.17 ± 0.072
SAGGSAGGSAGEEKEYRIVVPFDSDDPEAFVRAVFDGIPPDVPIKAIDFNPELGYGVVVASAGGSAGGSAGG [r11_698_TrMRF],0.892 ± 0.11,1.07 ± 0.072,0.364 ± 0.091
SAGGSAGGSAGEFEILSIETEPPNGRVEIAIRFDDWVVVINFDNPNEPELYPVRPDDGIFSAGGSAGGSAGG [r17_145_TrROS],2.3 ± 0.17,2.24 ± 0.12,2.54 ± 0.19
SAGGSAGGSAGEIEVTVTFTGDDGYVVEVKYTFEVPEPNNPIIKKVEVKVKKLKPNEPASSAGGSAGGSAGG [r11_517_TrMRF],2.22 ± 0.23,2.63 ± 0.063,1.12 ± 0.075
SAGGSAGGSAGEKDLPVIEVEFPFPSSFPLPLIKKFAEPFGVKKVEFFEDGTVKVLYVLDSAGGSAGGSAGG [r11_961_TrMRF],0.806 ± 0.13,0.984 ± 0.14,0.416 ± 0.1
SAGGSAGGSAGEKTFVIDEVKITSVERLPDGSLRVTIEVRLPNGETLTLTLTLPPGAVLESAGGSAGGSAGG [r11_429_TrROS_Hall],3.05 ± 0.07,3.19 ± 0.042,2.84 ± 0.11
SAGGSAGGSAGEKTIKIKVKDKNGKTKTITLKIKNAKFKPGQKIEIVKVNKNGSLEIKLKSAGGSAGGSAGG [r11_733_TrROS_Hall],1.6 ± 0.24,1.82 ± 0.087,0.678 ± 0.059
SAGGSAGGSAGEKVIRFPFKSPEEIREHIKNGRPIRFPNGKPVKITKIQPYPNGWLWITVSAGGSAGGSAGG [r11_48_TrROS],1.12 ± 0.21,1.3 ± 0.12,0.89 ± 0.05
SAGGSAGGSAGEKVKLVITTTVTLPALDPEGGEFVGPVTFTETIVLDMNPEDAARLLAAASAGGSAGGSAGG [r17_283_TrMRF],2.23 ± 0.056,2.675 ± 0.013,1.4 ± 0.034
SAGGSAGGSAGENKPIKVLVFLEKEDEYYEELFEFDSPEEIEEWLKKIPKDYKVKKVIVFSAGGSAGGSAGG [r17_410_TrMRF],3.61 ± 0.16,3.95 ± 0.14,3.09 ± 0.11
SAGGSAGGSAGEPIKGIIRVYNPETGEVTDIELEFKTLEEALAFAASLPPTVARVEIVFASAGGSAGGSAGG [r11_25_TrMRF],2.66 ± 0.095,3.002 ± 0.03,1.6 ± 0.059
SAGGSAGGSAGFHIDVEVHRDDEGYVKVRVKMYMYNPDPGEPMGSFEMTIWIPPEDADKLSAGGSAGGSAGG [r11_575_TrROS],3.7 ± 0.098,3.9 ± 0.056,3.33 ± 0.14
SAGGSAGGSAGFYKAKLKILKTKVYSNEKGTKKKTYKPVLILEELIPPKIPKELWEKLNKSAGGSAGGSAGG [r11_318_TrMRF],0.55 ± 0.57,0.528 ± 0.4,0.836 ± 0.3
SAGGSAGGSAGGAAPNTFKVRLELKVKVEKRTYKNEDGSTYEVDSISVELKIEIEPLPDSAGGSAGGSAGGS [r10_1212_TrROS_Hall],5.66 ± 0.51,5.69 ± 0.2,3.85 ± 0.19
SAGGSAGGSAGGAEITIEEKDGKLTLTVRLPDGYVATATFDPNGKWTIKEIKVYKLPEGLSAGGSAGGSAGG [r7_826_TrROS_Hall],3.05 ± 0.47,3.52 ± 0.077,2.35 ± 0.3
